# Assay results as given in paper PMC5721652, “Nanobodies targeting conserved epitopes on the major outer membrane protein of Campylobacter as potential tools for control of Campylobacter colonization” (Veterinary Research, 2017).
# Target: T1, major outer membrane protein (MOMP) of Campylobacter jejuni KC40 (Campylobacter jejuni KC40 (stand-in: …, UniProt P80672, strain))
# T1 construct: major outer membrane protein (MOMP, porA) of C. jejuni strain KC40; the printed entry P80672 is that of strain NCTC 11168, to which the peptides of the pull-down matched; The legends call the purified protein a MOMP monomer; the introduction describes MOMP as a trimeric porin; Kept in 0.6% octyl-POE after purification; also called purified MOMP monomer; native MOMP; source: purified from C. …
# Assay: ELISA; competition: MOMP coated at 1 µg/mL; serial dilutions of strep-tagged nanobody and a constant 5 x 10^-2 µg/mL of His-tagged Nb84 added simultaneously; bound His-tagged Nb84 detected with anti-Histidine tag antibody
# Conditions: both partners purified
row,Binder,binding result
1,"Nb5, strep-tagged (VHH, as the VHH of m2; the printed oligo encodes the tag directly after the end of the nanobody; also called strep-tagged Nb5; source: E. coli, purified (StrepTrap HP); not shown: strep-tag, C-terminal, kept) VHH: QVQLQESGGGLVQAGGSLRLSCAASGTIISLNSMGWYRQAPGKQRELVAALTSGGTTNYADSVKGRFTISRVNAKNTVYLQMNSLKPEDTAVYYCNAKLITTAQGMVLASWGQGTQVTVSS",binds
2,"Nb23, strep-tagged (VHH, as the VHH of m4; also called strep-tagged Nb23; source: E. coli, purified (StrepTrap HP); not shown: strep-tag, C-terminal, kept) VHH: QVQLQESGGGLVQPGGSLRLSCAASGTIDNFNGMGWYRQAPGKQREWLARITMNGRTIYAESVEGRFTISRDKVKNTLALQMNSLKPEDTAVYYCNARGVLTPRGIHDYWGQGTQVTVSS",binds
3,"Nb24, strep-tagged (VHH, as the VHH of m5; also called strep-tagged Nb24; source: E. coli, purified (StrepTrap HP); not shown: strep-tag, C-terminal, kept) VHH: QVQLQESGGGLVQPGGSLRLSCAASGRTFSRFSDNYVMGWFRQAPGKEREVVGAIRWSVASTYYADFVKGRFTISRDSAMNTMYLQMNNLKPEDTAVYYCATKFSGPINGGQTSYNYWGQGTQVTVSS",binds
4,"Nb49, strep-tagged (VHH, as the VHH of m6; also called strep-tagged Nb49; source: E. coli, purified (StrepTrap HP); not shown: strep-tag, C-terminal, kept) VHH: QVQLQESGGGLVQPGWSLRLSCAASSIFEINAMGWYRQPPGKQRERVATITDGFGTNYADSVKGRFTISRDNAKNTVYLQMNSLRPEDTAVYYCSAQRTVPYKMTYWGQGTQVTVSS",binds
5,"Nb15, strep-tagged (VHH, as the VHH of m8; also called strep-tagged Nb15; source: E. coli, purified (StrepTrap HP); not shown: strep-tag, C-terminal, kept) VHH: QVQLQESGGGLVQPGGSLRLSCAASGRTFRSYDMGWFRQAPGKEREFVAASAWSAGRTIYKNSVKGRFTISRDNTKDTMYLQMNDLKPEDTAVYFCAADRNPPPIYNEFYYYRASAYDYWGQGTQVTVSS",binds
6,"Nb48, strep-tagged (VHH, as the VHH of m12; also called strep-tagged Nb48; source: E. coli, purified (StrepTrap HP); not shown: strep-tag, C-terminal, kept) VHH: QVQLQESGGGSVQAGESLRLACAASGSILSINIMRWYRQAPGKQRELVATIGRSGNTDLADFAKGRFTGSRDNGKNTVYLQMNNLKPEDTAVYYCNALLTTLSAQTGVYWGQGTQVTVSS",binds
7,"Nb63, strep-tagged (VHH, as the VHH of m13; also called strep-tagged Nb63; source: E. coli, purified (StrepTrap HP); not shown: strep-tag, C-terminal, kept) VHH: QVQLQESGGGLVQPGGSLRLSCVASGSTFAINVMGWYRRAPGKQRELVATVTSGSTTYSRVRSSDTTYADSVKGRFTISRDNAKNMVYLQMNSLKPEDTAVYYCNARTRNTIATSDGMDYWGKGTQVTVSS",binds
8,"Nb32, strep-tagged (VHH, as the VHH of m9; also called strep-tagged Nb32; source: E. coli, purified (StrepTrap HP); not shown: strep-tag, C-terminal, kept) VHH: QVQLQESGGGLVQAGDSLRLSCAASGGTFSNYVLGWFRQAPGKEREFVAAIRWSGERTYYADSVKGRFTISSDNAKYRQVTVYLEMNSLKPEDTAVYYCAARAPNYYSDSQPPVTLSEYKVWGQGTQVTVSS",binds
9,"Nb34, strep-tagged (VHH, as the VHH of m10; also called strep-tagged Nb34; source: E. coli, purified (StrepTrap HP); not shown: strep-tag, C-terminal, kept) VHH: QVQLQESGGGLVQAGGSLRLSCAASGRTSSSYAMGWFRQAPGKEREFVTAISWNGSKAYYSDSVKGRFTISRDNAKNTVYLQMNSLKPEDTAVYYCAQGAYRVVADPGEYDYWGQGTQVTVSS",binds
10,"Nb45, strep-tagged (VHH, as the VHH of m11; also called strep-tagged Nb45; source: E. coli, purified (StrepTrap HP); not shown: strep-tag, C-terminal, kept) VHH: QVQLQESGGGLVQAGGSLRLACVASSTIFSINNMAWYRQAPGKQRELVARITAGGNTNYADSVKGRFTISKDKGKNTVRLQMNSLKPEDTGVYYCKCGGCGTPYSLSEDYWGQGTQVTVSS",binds

# Target: T1, major outer membrane protein (MOMP) of …
# Assay: far-Western, overlay or dot blot; purified MOMP run on a non-denaturing gel, transferred to PVDF, incubated with 5 µg/mL His-tagged nanobody for 1 h at 4 °C, detected with anti-Histidine tag antibody
# Conditions: both partners purified
row,Binder,binding result
1,"Nb23, His-tagged (VHH, Cloned in pHen6C; one of the six nanobodies with broad specificity; also called anti-Campylobacter nanobody; not shown: His-tag, C-terminal, kept) VHH: QVQLQESGGGLVQPGGSLRLSCAASGTIDNFNGMGWYRQAPGKQREWLARITMNGRTIYAESVEGRFTISRDKVKNTLALQMNSLKPEDTAVYYCNARGVLTPRGIHDYWGQGTQVTVSS",binds
2,"Nb24, His-tagged (VHH, Cloned in pHen6C; one of the six nanobodies with broad specificity; also called anti-Campylobacter nanobody; not shown: His-tag, C-terminal, kept) VHH: QVQLQESGGGLVQPGGSLRLSCAASGRTFSRFSDNYVMGWFRQAPGKEREVVGAIRWSVASTYYADFVKGRFTISRDSAMNTMYLQMNNLKPEDTAVYYCATKFSGPINGGQTSYNYWGQGTQVTVSS",binds
3,"Nb49, His-tagged (VHH, Cloned in pHen6C; one of the six nanobodies with broad specificity; also called anti-Campylobacter nanobody; not shown: His-tag, C-terminal, kept) VHH: QVQLQESGGGLVQPGWSLRLSCAASSIFEINAMGWYRQPPGKQRERVATITDGFGTNYADSVKGRFTISRDNAKNTVYLQMNSLRPEDTAVYYCSAQRTVPYKMTYWGQGTQVTVSS",binds

# Target: T1, major outer membrane protein (MOMP) of …
# Assay: pull-down; His-tagged nanobody (20 µL of 1.0 mg/mL) mixed with 500 µL outer membrane proteins of C. jejuni KC40 (1.2 mg/mL), 2 h at 4 °C, captured overnight at 4 °C on Co2+-coated Dynabeads; eluted band cut from a silver-stained gel and identified by LC-MS/MS
# Conditions: one partner purified
row,Binder,binding result
1,"Nb5, His-tagged (VHH, Cloned in pHen6C; one of the six nanobodies with broad specificity; also called anti-Campylobacter nanobody; not shown: His-tag, C-terminal, kept) VHH: QVQLQESGGGLVQAGGSLRLSCAASGTIISLNSMGWYRQAPGKQRELVAALTSGGTTNYADSVKGRFTISRVNAKNTVYLQMNSLKPEDTAVYYCNAKLITTAQGMVLASWGQGTQVTVSS",binds

# Target: T1, major outer membrane protein (MOMP) of …
# Assay: ELISA; purified MOMP coated at 1 µg/mL; His-tagged nanobody at 50 µg/mL, or tenfold serial dilutions of His-tagged Nb84 (saturation binding); detected with anti-Histidine tag antibody
# Conditions: both partners purified
row,Binder,binding result
1,"Nb15, His-tagged (VHH, One of the six nanobodies with less broad specificity; its name is printed only in the legend of Additional file 5; also called anti-Campylobacter nanobody; not shown: His-tag, C-terminal, kept) VHH: QVQLQESGGGLVQPGGSLRLSCAASGRTFRSYDMGWFRQAPGKEREFVAASAWSAGRTIYKNSVKGRFTISRDNTKDTMYLQMNDLKPEDTAVYFCAADRNPPPIYNEFYYYRASAYDYWGQGTQVTVSS",binds
2,"Nb32, His-tagged (VHH, One of the six nanobodies with less broad specificity; also called anti-Campylobacter nanobody; not shown: His-tag, C-terminal, kept) VHH: QVQLQESGGGLVQAGDSLRLSCAASGGTFSNYVLGWFRQAPGKEREFVAAIRWSGERTYYADSVKGRFTISSDNAKYRQVTVYLEMNSLKPEDTAVYYCAARAPNYYSDSQPPVTLSEYKVWGQGTQVTVSS",binds
3,"Nb34, His-tagged (VHH, One of the six nanobodies with less broad specificity; also called anti-Campylobacter nanobody; not shown: His-tag, C-terminal, kept) VHH: QVQLQESGGGLVQAGGSLRLSCAASGRTSSSYAMGWFRQAPGKEREFVTAISWNGSKAYYSDSVKGRFTISRDNAKNTVYLQMNSLKPEDTAVYYCAQGAYRVVADPGEYDYWGQGTQVTVSS",binds
4,"Nb45, His-tagged (VHH, One of the six nanobodies with less broad specificity; also called anti-Campylobacter nanobody; not shown: His-tag, C-terminal, kept) VHH: QVQLQESGGGLVQAGGSLRLACVASSTIFSINNMAWYRQAPGKQRELVARITAGGNTNYADSVKGRFTISKDKGKNTVRLQMNSLKPEDTGVYYCKCGGCGTPYSLSEDYWGQGTQVTVSS",binds
5,"Nb48, His-tagged (VHH, One of the six nanobodies with less broad specificity; its name is printed only in the legend of Additional file 5; also called anti-Campylobacter nanobody; not shown: His-tag, C-terminal, kept) VHH: QVQLQESGGGSVQAGESLRLACAASGSILSINIMRWYRQAPGKQRELVATIGRSGNTDLADFAKGRFTGSRDNGKNTVYLQMNNLKPEDTAVYYCNALLTTLSAQTGVYWGQGTQVTVSS",binds
6,"Nb63, His-tagged (VHH, One of the six nanobodies with less broad specificity; its name is printed only in the legend of Additional file 5; also called anti-Campylobacter nanobody; not shown: His-tag, C-terminal, kept) VHH: QVQLQESGGGLVQPGGSLRLSCVASGSTFAINVMGWYRRAPGKQRELVATVTSGSTTYSRVRSSDTTYADSVKGRFTISRDNAKNMVYLQMNSLKPEDTAVYYCNARTRNTIATSDGMDYWGKGTQVTVSS",binds

# Target: T1, major outer membrane protein (MOMP) of …
# Assay: MST; saturation: Dylight 650 labelled nanobody constant at 32 nM, twofold serial dilutions of MOMP from 0.3 nM to 5.0 µM; 20 mM sodium phosphate pH 7.6, 150 mM NaCl, 0.6% octyl-POE
# Conditions: both partners purified
row,Binder,Kd [nM]
1,"Nb22, fluorescently labelled (VHH, as the VHH of m3; probably the C-terminally His-tagged one; also called fluorescently labelled Nb22; source: E. coli, purified; labelled with Dylight 650 NHS Ester) VHH: QVQLQESGGGLVQPGGSLRLSCAVSRTIFNFNNMGWYRQPPGKPRELVARITMNGRTDYADPVKGRFTISRDSAKNTLALQMNDLKGDDTAVYYCAARGAVRTGNLMPTDYWGQGTQVTVSS",118 ± 48
2,"Nb84, fluorescently labelled (VHH, as the VHH of m7; probably the C-terminally His-tagged one; also called fluorescently labelled Nb84; labelled Nb84; source: E. coli, purified; labelled with Dylight 650 NHS Ester) VHH: QVQLQESGGGLVQAGGSLRLSCKASGTIISINNMGWYRRSPGKERDMVARIFSSGTINYTDSVKGRFTISRDNAKNTVYLEMNSLKPEDTAIYYCNARLTTTAMGTIPNSWGQGTQVTVSS",422 ± 159
